Data: the DeepSol protein solubility set

Test: soluble on expression in E. coli; label from the status in PepcDB or PDB records

Row | Sequence | soluble on expression in E. coli
1 | MDIQLVADGLQFPEGPIAMADGSVILTEIQGQRLTRVWPDGRKETVAETGGGPNGAAIGPDGAIYVTNNGGSFQFFEANGLNIPGPTPPTHTGGAIQRVDLKTGAITTLYTECDGKPLVGPNDLVFDKQGGFWFTDHGCSTPDGRKYGALYYALPDGSKITRWRDHFVSPNGVGLSPDEKTVYMADTMLGRLWSFDVASPGVLADAVPLLPGNVVCNLPGYQLLDSLAVEADGKVCVATIINGGITAFAPDGSTEHYAFPDVIVTNICFGGADMRDAWITASGTGKLYKARWPRPGLKLNFNGLEHHHHHH | soluble
2 | MDIRELVHLGRYAVWNAFEGKEIKVPEALKEKYSRNMGVFTTLKTYPEHNLRGCIGVPLPVYPLWYATVYSSLQAAFQDPRFYPLKKEEFDKVLWEITLLTPPEELKVPKEELPEQIEIGKHGLIIEKGEQKGLLLPQVPVEYGWSPVEFLEYTCLKAGLPKDCWKDKETKVYVFSGEVYQEKEPFGEVERVNLKLEHHHHHH | soluble
3 | MDKESVDTLFGMGLTAYQAKDYTKAIHALEHLREHDPSYTTLYSYLAKSYEENGEPEKAIAVLRDGLTQDEFNKEMFLEAGKLAVTLRLPEEAEEFYRQAIVLDEEFSEAIMQLNKLLLAKENYEGVIELVEGLGEEVISEPQIFWDVSVAYQETEQYNKAKANYELAYPHFTNNPTFLKEYGLFLREEGEHAKSQEVLRSYLELEPEDTEILSLFDLEHHHHHH | soluble
4 | MDKPVDKPAKGKRPAAAGRGSKPRSASAERVRRHREKMKAMGLKPVTIWVPEDYNSPEYKAEIRRECELINADPESEIVLEGMWELADFGDWKA | not soluble
5 | MDKSDMQRTVDSLRSQLNIERTPITVSAAELRRFTESQEDPLVNPIDKKVNPWAEKSKCSML | not soluble
6 | MDLASLRAQQIELASSVICEDRLDKDPPDLIAGADVGFEQGGEVTRAAMVLLKYPSLELVEYKVARIATTMPYIPGFLSFREYPALLAAWEMLSQKPDLVFVDGHGISHPRRLGVASHFGLLVDVPTIGVAKKRLCGKFEPLSSKPGALAPLMDKGEQLAWVWRSKARCNPLFIATGHRVSVDSALAWVQRCMKGYRLPEPTRWADAVASERPAFVRYTANQPLEHHHHHH | not soluble
7 | MDLQHWQAQFENWLKNHHQHQDAAHDVCHFRRVWATAQKLAADDDVDMLVILTACYFHDIVSLAKNHPQRQRSSILAAEETRRLLREEFEQFPAEKIEAVCHAIAAHSFSAQIAPLTTEAKIVQDADRLEALGAIGLARVFAVSGALGVALFDGEDPFAQHRPLDDKRYALDHFQTKLLKLPQTMQTARGKQLAQHNAHFLVEFMAKLSAELAGENEGVDHKVIDAFSSAGLEHHHHHH | soluble
8 | MDLSSKPQQQLLNSLPIAGELTVTGEMGVCYKECLKNHAANLGGHALDGCGEFMPSPTATSTDPSSLRCAACGCHRNFHRRDPSENLNFLTAPPISSPSGTESPPSRHVSSPVPCSYYTSAPPHHVILSLSSGFPGPSDQDPTVVRSENSSRGAMRKRTRTKFTPEQKIKMRAFAEKAGWKINGCDEKSVREFCNEVGIERGVLKVWMHNNKYSLLNGKIREIEHGLCLNTHSNDGDGSSSS | soluble
9 | MDLVDKRDVLIGDFRPSLGFYGGVRVGVYLDTTEPKHAKIKGFAMETLKRSSKVWLQELRSNLNIFWGTIESEISKNGAASYIFPLQRCIFSFLCASLAGVDASVSPDIAENGWKTINTWLALQVIPTAKLGVVPQPLEEILLHTWPYPSLLIAGNYKKLYNFIDENAGDCLRLGQEEFGLTRDEAIQNLLFVLGFNAYGGFSVFLPSLIGRITGDNSGLQERIRTEVRRVCGSGSDLNFKTVNEMELVKSVVYETLRFSPPVPLQFARARKDFQISSHDAVFEVKKGELLCGYQPLVMRDANVFDEPEEFKPDRYVGETGSELLNYLYWSNGPQTGTPSASNKQCAAKDIVTLTASLLVADLFLRYDTITGDSGSIKAVVKAK | soluble
10 | MDNIQQEKLKNLIRSLEKSASPQEAEYLMGEILVPLLAEDGYSIQAVGDQRDFGVDFIARKDKHEEQFPEEIAIEYKHYRKAAVGLDVVHRVLGAAMSMGLSRAMVITNSRFTYAAREAIRRSSPVGVELLDIDALRSWIGRIEEVPSIDVVQVNIIRREFSRRLIELILKNPRYLDEIEWREMERLLAEVFEGLGFSVRLTPGSKDGGKDIILTCQVATKNHTYYVEVKHWRSGQRVGSGAITEFLNVIINEQIDGGLYLSTYGYCSNSIESLTEIQRKSLRFGTENKVVTLCQSYVKAMSGIWAPDKLLPEVLYDNTL | not soluble
